Residue numbers refer to the chain shown, from its start.
B1: 15E6 antibody (antibody, IgG4, V domains shown)
VH: EVQLVESGGGLVQPGRSLRLSCAASGFTFDDYAMHWVRQAPGKGLEWVSGINWNSGGIGYADSVKGRFTISRDNAKNSLYLQMNSLRAEDTALYYCARDMGGFGEFYWNFGLWGRGTLVTVSS
VL: not shown
notes: also called 15E6 IgG4
B2: 12B12 antibody (antibody, IgG4, V domains shown)
VH: QVQLVQSGAEVKKPGSSVKVSCKASGGTLSSYAFSWVRQAPGQGLEWMGGIIPFFGTVNYAQKFQGRVTITADESTNTAYMELSSLRSEDTAVYYCARDRDYYGLGSPLHYYGLDVWGQGTTVTVSS
VL: EIVLTQSPDFQSVTPKEKVTITCRASQSIGSSLHWYQQKPDQSPKLLIKYASQSFSGVPSRFSGSGSGTDFTLTINSLEAEDAAAYYCHQSSSLPWTFGQGTKVEIK
B3: 39F12 antibody (antibody, IgG4, V domains shown)
VH: B2 VH with V58T, T69I, S85G, L109F, H110Y, L114M
VL: B2 VL
notes: also called Mab06a; 39F12 IgG4
B4: 15B7 antibody (antibody, IgG4, V domains shown)
VH: B2 VH with V58A, N59H, L105S, L109F, Y111F, Y112S
VL: B2 VL
B5: 8B11 antibody (antibody, IgG3, V domains shown)
VH: EVQLVESGGGLVHPGGSLRLSCAASGFTFSSFNMDWVRQAPGKGLEWVSSISTTSRIIYSADSVKGRFTISRDNARNSLYLQMNSLRDEDTAVYYCARVSYYGHGFDYWGQGTLVTVSS
VL: DIQMTQSPSSLSASVGDRVTITCRASQGISSWLAWYQQKPEKAPKSLIYAASSLQSGVPSRFSGSGSGTDFTLTISSLQPEDFATYYCQQYNSYPLTFGGGTKVEIK
B6: 30D12 antibody (antibody, IgG1, V domains shown)
VH: QVQLVQSGAEVKKPGASVKVSCKASGYTFTSYDINWVRQATGQGLEWMGWMNPDSGVIRYAQKFQGRVTMTRNTSISTAYMELNSLRSEDTAVYYCAREWFGELPSYYFYSGMDVWGQGTTVTVSS
VL: EIVLTQSPATLSLSPGERATLSCRASQSVSSYLAWYQQKPGQAPRLLIYDASNRATGIPARFSGSGSGTDFTLTISSLEPEDFAVYYCQQRSNWPPTFGPGTKVDIK
notes: Fully human monoclonal antibody; also called 30D12 IgG1
B7: 29D8 antibody (antibody, IgG1, V domains shown)
VH: QVQLVQSGAEVKKPGASVKVSCKAFAYTFSTYGISWVRQAPGQGLEWMGWISAYNSNTNYAQKVQGRITMTTDTSTRTAYMELRGLRSDDTAVYFCATFFGGHSGYHYGLDVWGQGTTVTVSS
VL: EIVLTQSPATLSLSPGERATLSCRASQSVSSYLAWYQQKPGQAPRLLIYDASNRATGIPARFSGSGSGTDFTLTISSLEPEDFAVYYCQQRSNWPPYTFGQGTKLEIK
B8: 1E4 antibody (antibody, IgG4, V domains shown)
VH: QVQLVQSGAEVKKPGASVKVSCKASVYTFTTYGISWVRQAPGQGLEWMGWISVYNGNTNYGQNFQGRVSMTTDTSTSTAYMELRSLRSDDTAVYYCASFHGGHSGYHYGLDVWGQGTTVTVSS
VL: B7 VL
B9: 31A3 antibody (antibody, IgG1, V domains shown)
VH: B8 VH with S52T, G61A, N63K, Q65H, S69T
VL: B7 VL

molecular target: T1, cynomolgus IL-17A homodimer (cynomolgus, UniProt A0A2K5TTB0 20-155); assay: cell-based or functional assay
T1 sequence: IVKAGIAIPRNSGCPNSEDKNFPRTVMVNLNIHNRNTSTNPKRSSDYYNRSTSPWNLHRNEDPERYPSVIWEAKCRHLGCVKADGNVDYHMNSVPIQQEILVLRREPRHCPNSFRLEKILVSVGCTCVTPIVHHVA

Point of comparison: B9, “IC50, IL-6 secretion by MEF cells, cytokine at 5 ng/ml” value (“IC50, IL-6 secretion … at 5 ng/ml” below) 290 nM. Against it:
- B1 — 140-fold lower, 2 nM
- B2 — 22-fold lower, 13 nM
- B3 — 62-fold lower, 4.7 nM
- B4 — 2.1-fold lower, 140 nM
- B5 — within 1.5-fold, 230 nM
- B6 — 97-fold lower, 3 nM
- B7 — 35-fold lower, 8.4 nM
- B8 — within 1.5-fold, 330 nM

molecular target: T2, cynomolgus IL-17F homodimer (cynomolgus, UniProt G7P4V0 31-163); assay: cell-based or functional assay
T2 sequence: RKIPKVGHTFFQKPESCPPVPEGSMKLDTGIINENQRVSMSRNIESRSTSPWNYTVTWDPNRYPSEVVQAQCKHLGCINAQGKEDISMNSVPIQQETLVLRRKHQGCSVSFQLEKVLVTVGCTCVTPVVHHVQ

Point of comparison: B2, “IC50, IL-6 secretion by MEF cells, cytokine at 25 ng/ml” value 3.2 nM. Against it:
- B1 — 2.3-fold lower, 1.4 nM
- B3 — 1.6-fold higher, 5.2 nM
- B4 — 4.7-fold higher, 15 nM
- B5 — 16-fold higher, 50 nM
- B6 — 41-fold higher, 130 nM
- B7 — within 1.5-fold, 3.6 nM
- B8 — within 1.5-fold, 3.4 nM
- B9 — within 1.5-fold, 4.2 nM

molecular target: T3, mouse IL-17F homodimer (mouse, UniProt Q7TNI7 29-161, limits assumed); assay: cell-based or functional assay
T3 sequence (looked up): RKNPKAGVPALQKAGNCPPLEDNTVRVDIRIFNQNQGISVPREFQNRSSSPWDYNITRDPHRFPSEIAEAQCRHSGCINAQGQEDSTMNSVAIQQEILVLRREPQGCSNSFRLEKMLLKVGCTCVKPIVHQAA

Point of comparison: B4, “IC50, IL-6 secretion by MEF cells, cytokine at 50 ng/ml” value 22 nM. Against it:
- B1 — higher, > 1000 nM
- B2 — 5.2-fold lower, 4.2 nM
- B3 — 5.5-fold lower, 4 nM

molecular target: T4, mouse IL-17A homodimer (mouse, UniProt Q62386 26-158, limits assumed); assay: cell-based or functional assay
T4 sequence (looked up): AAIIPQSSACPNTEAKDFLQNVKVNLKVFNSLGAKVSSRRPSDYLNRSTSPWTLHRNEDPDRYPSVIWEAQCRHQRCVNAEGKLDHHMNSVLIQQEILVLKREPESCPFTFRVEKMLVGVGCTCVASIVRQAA

B2 and B3 cannot be ordered by “IC50, IL-6 secretion … at 5 ng/ml” value: > 1000 nM for the first, > 1000 nM for the second.

For B4, the “IC50, IL-6 secretion … at 5 ng/ml” value was > 1000 nM.

molecular target: T5, human IL-17A/IL-17F heterodimer (human, UniProt Q16552 24-155; Q96PD4 31-163, limits assumed); assay: cell-based or functional assay
T5 sequence (looked up) 1: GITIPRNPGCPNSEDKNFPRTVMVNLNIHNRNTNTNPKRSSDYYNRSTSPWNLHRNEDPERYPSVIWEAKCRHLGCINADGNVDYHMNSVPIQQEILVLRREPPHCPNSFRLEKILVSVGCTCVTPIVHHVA
T5 sequence (looked up) 2: T2 sequence with E22G, T29I, K73R, H74N, L100V, V129I

Point of comparison: B2, “IC50, IL-6 secretion by MEF cells, cytokine at 17.5 ng/ml” value 13 nM. Against it:
- B1 — 12-fold lower, 1.1 nM
- B3 — within 1.5-fold, 11 nM
- B4 — 12-fold higher, 160 nM
- B5 — 18-fold higher, 240 nM
- B6 — 2.4-fold higher, 31 nM
- B7 — 12-fold lower, 1.1 nM
- B8 — within 1.5-fold, 16 nM
- B9 — within 1.5-fold, 9.2 nM

molecular target: T6, rat IL-17A homodimer (rat, UniProt Q61453 18-150, limits assumed); assay: cell-based or functional assay
T6 sequence (looked up): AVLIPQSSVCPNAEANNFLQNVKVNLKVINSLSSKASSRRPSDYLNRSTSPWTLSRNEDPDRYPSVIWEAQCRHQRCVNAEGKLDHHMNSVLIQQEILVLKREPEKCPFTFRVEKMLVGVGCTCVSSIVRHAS

B2 and B3 cannot be ordered by “IC50, IL-6 secretion … at 5 ng/ml” value: > 1000 nM for the first, > 1000 nM for the second.

B4 and B6 cannot be ordered by “IC50, IL-6 secretion … at 5 ng/ml” value: > 1000 nM for the first, > 1000 nM for the second.

molecular target: cynomolgus IL-17A/IL-17F heterodimer (cynomolgus); assay: cell-based or functional assay

Point of comparison: B7, “IC50, IL-6 secretion by MEF cells, cytokine at 25 ng/ml” value 0.56 nM. Against it:
- B1 — 3.1-fold lower, 0.18 nM
- B3 — 29-fold higher, 16 nM
- B6 — 27-fold higher, 15 nM

molecular target: T7, human IL-17A homodimer (human, UniProt Q16552 20-155, limits assumed); assay: cell-based or functional assay
T7 sequence (looked up): T1 sequence with A7T, S12P, S38N, V81I, K82N, R108P

Point of comparison: B2, “IC50, IL-6 secretion … at 5 ng/ml” value 33 nM. Against it:
- B1 — 21-fold lower, 1.6 nM
- B3 — 3.4-fold lower, 9.8 nM
- B4 — 5.5-fold higher, 180 nM
- B5 — 3-fold higher, 100 nM
- B6 — 30-fold lower, 1.1 nM
- B7 — within 1.5-fold, 40 nM
- B8 — 15-fold higher, 480 nM

molecular target: T5, human IL-17A/IL-17F heterodimer; assay: SPR Biacore, mAb captured, cytokine as analyte
Procedure: (§1) The affinity and binding kinetics of huIL-17F cross-reactive antibodies were characterized on a Biacore 2000 instrument (Biacore AB, Uppsala, Sweden). […] This surface was used to capture huIL-17A/F antibodies. The surface was regenerated after each cycle by injection of 10 mM glycine pH=1.5 at 20 μL/min, for 30 s followed by 1 min of stabilization time in HBS-EP buffer (Biacore AB, Uppsala, Sweden).
(§2) All solutions were diluted in HBS-EP buffer. Injection was performed at 75 μl/min for 3 min followed by 12 min of dissociation time and the temperature was set at 25° C.

Point of comparison: B1, Kd 0.0447 nM. Against it:
- B3 — 9-fold higher, 0.402 nM
- B6 — 2.2-fold higher, 0.0981 nM

molecular target: T7, human IL-17A homodimer; assay: SPR Biacore, mAb captured, cytokine as analyte
Procedure: as §1, §2

Point of comparison: B6, Kd 0.0594 nM. Against it:
- B1 — 1.6-fold lower, 0.0364 nM
- B3 — 1.5-fold higher, 0.0895 nM

molecular target: T1, cynomolgus IL-17A homodimer; assay: cell-based or functional assay; remark: another data set of the same source

Point of comparison: B1, “IC50, IL-6 secretion by HFFF2 human fibroblasts, cytokine at 25 ng/ml” value 4.5 nM. Against it:
- B3 — 3.3-fold higher, 15 nM
- B6 — within 1.5-fold, 6.6 nM

molecular target: T7, human IL-17A homodimer; assay: cell-based or functional assay; remark: another data set of the same source

Point of comparison: B7, “IC50, IL-6 secretion by HFFF2 human fibroblasts, cytokine at 25 ng/ml” value 36 nM. Against it:
- B1 — 9.2-fold lower, 3.9 nM
- B3 — 2.6-fold lower, 14 nM
- B6 — 8.6-fold lower, 4.2 nM

From patent publication US20130195872A1 (NOVIMMUNE S A, published 2013)
